Values of other authors in publication PMC3403913.

Target: factor Va (Homo sapiens) (UniProt P12259)
Sequence of UniProt P12259 (P12259 29-737, chain 1 of 2): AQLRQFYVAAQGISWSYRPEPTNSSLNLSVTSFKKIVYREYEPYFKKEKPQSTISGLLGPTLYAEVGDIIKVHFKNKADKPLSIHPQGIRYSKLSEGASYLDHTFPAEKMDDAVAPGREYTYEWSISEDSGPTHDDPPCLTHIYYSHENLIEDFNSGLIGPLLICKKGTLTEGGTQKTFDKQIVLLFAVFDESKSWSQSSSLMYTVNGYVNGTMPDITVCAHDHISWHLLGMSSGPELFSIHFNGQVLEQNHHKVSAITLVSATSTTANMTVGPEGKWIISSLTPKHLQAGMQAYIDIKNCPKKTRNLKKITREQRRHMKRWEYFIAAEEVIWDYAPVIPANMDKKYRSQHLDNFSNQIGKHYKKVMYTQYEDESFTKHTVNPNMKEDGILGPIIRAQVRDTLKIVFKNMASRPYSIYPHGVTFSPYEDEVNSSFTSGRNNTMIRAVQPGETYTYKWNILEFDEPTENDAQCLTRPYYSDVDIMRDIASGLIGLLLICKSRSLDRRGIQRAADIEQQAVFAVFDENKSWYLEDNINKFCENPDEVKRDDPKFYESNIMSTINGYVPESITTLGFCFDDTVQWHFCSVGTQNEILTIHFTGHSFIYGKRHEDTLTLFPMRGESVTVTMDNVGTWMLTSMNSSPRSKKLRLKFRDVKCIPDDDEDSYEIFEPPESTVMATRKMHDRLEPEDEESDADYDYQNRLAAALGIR
Sequence of UniProt P12259 (P12259 1574-2224, chain 2 of 2): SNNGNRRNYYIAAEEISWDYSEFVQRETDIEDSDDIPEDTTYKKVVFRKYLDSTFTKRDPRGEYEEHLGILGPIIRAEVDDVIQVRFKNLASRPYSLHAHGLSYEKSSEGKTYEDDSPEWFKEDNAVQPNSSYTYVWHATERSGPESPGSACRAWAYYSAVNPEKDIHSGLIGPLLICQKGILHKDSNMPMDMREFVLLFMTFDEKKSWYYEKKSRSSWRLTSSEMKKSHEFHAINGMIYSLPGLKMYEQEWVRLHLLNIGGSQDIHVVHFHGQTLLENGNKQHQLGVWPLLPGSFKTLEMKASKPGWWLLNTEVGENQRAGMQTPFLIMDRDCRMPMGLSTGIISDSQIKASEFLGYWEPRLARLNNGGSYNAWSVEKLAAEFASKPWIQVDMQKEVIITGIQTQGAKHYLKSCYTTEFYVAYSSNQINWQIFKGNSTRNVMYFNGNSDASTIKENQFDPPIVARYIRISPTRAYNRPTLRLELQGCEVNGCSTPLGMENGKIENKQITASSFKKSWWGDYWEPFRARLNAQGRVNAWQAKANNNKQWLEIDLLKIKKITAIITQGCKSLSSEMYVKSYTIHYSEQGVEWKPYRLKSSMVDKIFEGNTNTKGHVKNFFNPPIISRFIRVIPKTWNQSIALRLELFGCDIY

Substance: factor Xa (from UniProt P00742)
- Kd: 0.5 nM
